Experiments:
HeLa Kyoto [1] = assay: solubility in G1/S (NP-40 vs SDS abundance) (log2 ratio); higher = more soluble; details: cell cycle stage: G1/S
HeLa Kyoto [2] = assay: melting temperature (median over replicates), in situ; higher = more thermally stable
HeLa Kyoto [3] = assay: solubility change mitosis vs G1/S (difference of NP-40 vs SDS log2 ratios) (log2 ratio difference); higher = more soluble in mitosis
HeLa Kyoto [4] = assay: thermal stability score vs G1/S (z-score of summed log2 fold changes over temperatures); higher = more thermally stable than in G1/S
[5] = cell cycle stage: early G1 (4.5 h after nocodazole release)
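For melting temperature (median over replicates), in situ in this document: HeLa Kyoto cells synchronized by double thymidine or nocodazole block, proteins quantified by TMT10plex mass spectrometry, three independent biological replicates.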
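For solubility change mitosis vs G1/S (difference of NP-40 vs SDS log2 ratios) in this document: synchronized HeLa Kyoto cells (double thymidine block for G1/S, nocodazole release for mitosis), protein amounts in NP-40 versus SDS lysates quantified by mass spectrometry, three biological replicates.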
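For solubility in G1/S (NP-40 vs SDS abundance) in this document: HeLa Kyoto cells arrested at G1/S by double thymidine block, proteins quantified by TMT10plex mass spectrometry in mild NP-40 versus SDS extracts, three biological replicates.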
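For thermal stability score vs G1/S (z-score of summed log2 fold changes over temperatures) in this document: synchronized HeLa Kyoto cells, proteins quantified by TMT10plex mass spectrometry, three biological replicates, mitosis taken 0.5 h after nocodazole release, G1/S directly after double thymidine block.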

Sequence	solubility in G1/S (log2) (HeLa Kyoto [1])	melting temperature (HeLa Kyoto [2]; cell cycle stage: G1/S) [°C]	melting temperature (HeLa Kyoto [2]; cell cycle stage: mitosis) [°C]	solubility change mitosis (log2) (HeLa Kyoto [3])	thermal stability score (HeLa Kyoto [4]; [5])	thermal stability score (HeLa Kyoto [4]; cell cycle stage: mitosis)
MRECISIHVGQAGVQIGNACWELYCLEHGIQPDGQMPSDKTIGGGDDSFNTFFSETGAGKHVPRAVFVDLEPTVIDEVRTGTYRQLFHPEQLITGKEDAANNYARGHYTIGKEIIDLVLDRIRKLADQCTGLQGFLVFHSFGGGTGSGFTSLLMERLSVDYGKKSKLEFSIYPAPQVSTAVVEPYNSILTTHTTLEHSDCAFMVDNEAIYDICRRNLDIERPTYTNLNRLISQIVSSITASLRFDGALNVDLTEFQTNLVPYPRIHFPLATYAPVISAEKAYHEQLTVAEITNACFEPANQMVKCDPRHGKYMACCLLYRGDVVPKDVNAAIATIKTKRTIQFVDWCPTGFKVGINYQPPTVVPGGDLAKVQRAVCMLSNTTAVAEAWARLDHKFDLMYAKRAFVHWYVGEGMEEGEFSEAREDMAALEKDYEEVGADSADGEDEGEEY [TUBA1C]	0.171	55.2	54.6	-0.2	0.287	-2.74
MRFRIYKRKVLILTLVVAACGFVLWSSNGRQRKNEALAPPLLDAEPARGAGGRGGDHPSVAVGIRRVSNVSAASLVPAVPQPEADNLTLRYRSLVYQLNFDQTLRNVDKAGTWAPRELVLVVQVHNRPEYLRLLLDSLRKAQGIDNVLVIFSHDFWSTEINQLIAGVNFCPVLQVFFPFSIQLYPNEFPGSDPRDCPRDLPKNAALKLGCINAEYPDSFGHYREAKFSQTKHHWWWKLHFVWERVKILRDYAGLILFLEEDHYLAPDFYHVFKKMWKLKQQECPECDVLSLGTYSASRSFYGMADKVDVKTWKSTEHNMGLALTRNAYQKLIECTDTFCTYDDYNWDWTLQYLTVSCLPKFWKVLVPQIPRIFHAGDCGMHHKKTCRPSTQSAQIESLLNNNKQYMFPETLTISEKFTVVAISPPRKNGGWGDIRDHELCKSYRRLQ [MGAT2]	-0.0662	53.8	53.2	-0.141	-0.501	-0.689
MRGAGAILRPAARGARDLNPRRDISSWLAQWFPRTPARSVVALKTPIKVELVAGKTYRWCVCGRSKKQPFCDGSHFFQRTGLSPLKFKAQETRMVALCTCKATQRPPYCDGTHRSERVQKAEVGSPL [CISD3]	-0.205	50.8	–	0.0825	-0.749	-0.997
MRGPEPGPQPTMEGDVLDTLEALGYKGPLLEEQALTKAAEGGLSSPEFSELCIWLGSQIKSLCNLEESITSAGRDDLESFQLEISGFLKEMACPYSVLISGDIKDRLKKKEDCLKLLLFLSTELQASQILQNKKHKNSQLDKNSEVYQEVQAMFDTLGIPKSTTSDIPHMLNQVESKVKDILSKVQKNHVGKPLLKMDLNSEQAEQLERINDALSCEYECRRRMLMKRLDVTVQSFGWSDRAKVKTDDIARIYQPKRYALSPKTTITMAHLLAAREDLSKIIRTSSGTSREKTACAINKVLMGRVPDRGGRPNEIEPPPPEMPPWQKRQEGGGGRGGWGGGGGGGGRGGGGGGGGRGGWGGGGGGWGGGGGGGGGWGGGGGGGRGGFQGRGDYGGRGGYGGRGGYGGRGYGDPYGGGGGGGGGGGGGGGYRRY [FAM98B]	0.558	50.3	51.5	0.0481	-0.356	0.627
MRKFAYCKVVLATSLIWVLLDMFLLLYFSECNKCDEKKERGLPAGDVLEPVQKPHEGPGEMGKPVVIPKEDQEKMKEMFKINQFNLMASEMIALNRSLPDVRLEGCKTKVYPDNLPTTSVVIVFHNEAWSTLLRTVHSVINRSPRHMIEEIVLVDDASERDFLKRPLESYVKKLKVPVHVIRMEQRSGLIRARLKGAAVSKGQVITFLDAHCECTVGWLEPLLARIKHDRRTVVCPIIDVISDDTFEYMAGSDMTYGGFNWKLNFRWYPVPQREMDRRKGDRTLPVRTPTMAGGLFSIDRDYFQEIGTYDAGMDIWGGENLEISFRIWQCGGTLEIVTCSHVGHVFRKATPYTFPGGTGQIINKNNRRLAEVWMDEFKNFFYIISPGVTKVDYGDISSRVGLRHKLQCKPFSWYLENIYPDSQIPRHYFSLGEIRNVETNQCLDNMARKENEKVGIFNCHGMGGNQVFSYTANKEIRTDDLCLDVSKLNGPVTMLKCHHLKGNQLWEYDPVKLTLQHVNSNQCLDKATEEDSQVPSIRDCNGSRSQQWLLRNVTLPEIF [GALNT1]	-0.204	53.1	52	-0.0904	3.31	5
MRKMLAAVSRVLSGASQKPASRVLVASRNFANDATFEIKKCDLHRLEEGPPVTTVLTREDGLKYYRMMQTVRRMELKADQLYKQKIIRGFCHLCDGQEACCVGLEAGINPTDHLITAYRAHGFTFTRGLSVREILAELTGRKGGCAKGKGGSMHMYAKNFYGGNGIVGAQVPLGAGIALACKYNGKDEVCLTLYGDGAANQGQIFEAYNMAALWKLPCIFICENNRYGMGTSVERAAASTDYYKRGDFIPGLRVDGMDILCVREATRFAAAYCRSGKGPILMELQTYRYHGHSMSDPGVSYRTREEIQEVRSKSDPIMLLKDRMVNSNLASVEELKEIDVEVRKEIEDAAQFATADPEPPLEELGYHIYSSDPPFEVRGANQWIKFKSVS [PDHA1]	0.149	52.1	51.5	-0.122	-1.47	-2.37
MRLHLLLLLALCGAGTTAAELSYSLRGNWSICNGNGSLELPGAVPGCVHSALFQQGLIQDSYYRFNDLNYRWVSLDNWTYSKEFKIPFEISKWQKVNLILEGVDTVSKILFNEVTIGETDNMFNRYSFDITNVVRDVNSIELRFQSAVLYAAQQSKAHTRYQVPPDCPPLVQKGECHVNFVRKEQCSFSWDWGPSFPTQGIWKDVRIEAYNICHLNYFTFSPIYDKSAQEWNLEIESTFDVVSSKPVGGQVIVAIPKLQTQQTYSIELQPGKRIVELFVNISKNITVETWWPHGHGNQTGYNMTVLFELDGGLNIEKSAKVYFRTVELIEEPIKGSPGLSFYFKINGFPIFLKGSNWIPADSFQDRVTSELLRLLLQSVVDANMNTLRVWGGGIYEQDEFYELCDELGIMVWQDFMFACALYPTDQGFLDSVTAEVAYQIKRLKSHPSIIIWSGNNENEEALMMNWYHISFTDRPIYIKDYVTLYVKNIRELVLAGDKSRPFITSSPTNGAETVAEAWVSQNPNSNYFGDVHFYDYISDCWNWKVFPKARFASEYGYQSWPSFSTLEKVSSTEDWSFNSKFSLHRQHHEGGNKQMLYQAGLHFKLPQSTDPLRTFKDTIYLTQVMQAQCVKTETEFYRRSRSEIVDQQGHTMGALYWQLNDIWQAPSWASLEYGGKWKMLHYFAQNFFAPLLPVGFENENTFYIYGVSDLHSDYSMTLSVRVHTWSSLEPVCSRVTERFVMKGGEAVCLYEEPVSELLRRCGNCTRESCVVSFYLSADHELLSPTNYHFLSSPKEAVGLCKAQITAIISQQGDIFVFDLETSAVAPFVWLDVGSIPGRFSDNGFLMTEKTRTILFYPWEPTSKNELEQSFHVTSLTDIY [MANBA]	-0.0999	55.6	56	-0.0887	-1.93	-0.28
MRLKIGFILRSLLVVGSFLGLVVLWSSLTPRPDDPSPLSRMREDRDVNDPMPNRGGNGLAPGEDRFKPVVPWPHVEGVEVDLESIRRINKAKNEQEHHAGGDSQKDIMQRQYLTFKPQTFTYHDPVLRPGILGNFEPKEPEPPGVVGGPGEKAKPLVLGPEFKQAIQASIKEFGFNMVASDMISLDRSVNDLRQEECKYWHYDENLLTSSVVIVFHNEGWSTLMRTVHSVIKRTPRKYLAEIVLIDDFSNKEHLKEKLDEYIKLWNGLVKVFRNERREGLIQARSIGAQKAKLGQVLIYLDAHCEVAVNWYAPLVAPISKDRTICTVPLIDVINGNTYEIIPQGGGDEDGYARGAWDWSMLWKRVPLTPQEKRLRKTKTEPYRSPAMAGGLFAIEREFFFELGLYDPGLQIWGGENFEISYKIWQCGGKLLFVPCSRVGHIYRLEGWQGNPPPIYVGSSPTLKNYVRVVEVWWDEYKDYFYASRPESQALPYGDISELKKFREDHNCKSFKWFMEEIAYDITSHYPLPPKNVDWGEIRGFETAYCIDSMGKTNGGFVELGPCHRMGGNQLFRINEANQLMQYDQCLTKGADGSKVMITHCNLNEFKEWQYFKNLHRFTHIPSGKCLDRSEVLHQVFISNCDSSKTTQKWEMNNIHSV [GALNT7]	-0.206	53.7	53.8	-0.135	0.0877	0.865
MRLLPRLLLLLLLVFPATVLFRGGPRGLLAVAQDLTEDEETVEDSIIEDEDDEAEVEEDEPTDLVEDKEEEDVSGEPEASPSADTTILFVKGEDFPANNIVKFLVGFTNKGTEDFIVESLDASFRYPQDYQFYIQNFTALPLNTVVPPQRQATFEYSFIPAEPMGGRPFGLVINLNYKDLNGNVFQDAVFNQTVTVIEREDGLDGETIFMYMFLAGLGLLVIVGLHQLLESRKRKRPIQKVEMGTSSQNDVDMSWIPQETLNQINKASPRRLPRKRAQKRSVGSDE [SSR1]	0.474	57.4	58.8	0.0174	0.9	0.359
MRLREPLLSGSAAMPGASLQRACRLLVAVCALHLGVTLVYYLAGRDLSRLPQLVGVSTPLQGGSNSAAAIGQSSGELRTGGARPPPPLGASSQPRPGGDSSPVVDSGPGPASNLTSVPVPHTTALSLPACPEESPLLVGPMLIEFNMPVDLELVAKQNPNVKMGGRYAPRDCVSPHKVAIIIPFRNRQEHLKYWLYYLHPVLQRQQLDYGIYVINQAGDTIFNRAKLLNVGFQEALKDYDYTCFVFSDVDLIPMNDHNAYRCFSQPRHISVAMDKFGFSLPYVQYFGGVSALSKQQFLTINGFPNNYWGWGGEDDDIFNRLVFRGMSISRPNAVVGRCRMIRHSRDKKNEPNPQRFDRIAHTKETMLSDGLNSLTYQVLDVQRYPLYTQITVDIGTPS [B4GALT1]	-0.0686	53.1	54	0.0769	-2.25	-1.74
MRLRGCGPRAAPASSAGASDARLLAPPGRNPFVHELRLSALQKAQVALMTLTLFPVRLLVAAAMMLLAWPLALVASLGSAEKEPEQPPALWRKVVDFLLKAIMRTMWFAGGFHRVAVKGRQALPTEAAILTLAPHSSYFDAIPVTMTMSSIVMKAESRDIPIWGTLIQYIRPVFVSRSDQDSRRKTVEEIKRRAQSNGKWPQIMIFPEGTCTNRTCLITFKPGAFIPGAPVQPVVLRYPNKLDTITWTWQGPGALEILWLTLCQFHNQVEIEFLPVYSPSEEEKRNPALYASNVRRVMAEALGVSVTDYTFEDCQLALAEGQLRLPADTCLLEFARLVRGLGLKPEKLEKDLDRYSERARMKGGEKIGIAEFAASLEVPVSDLLEDMFSLFDESGSGEVDLRECVVALSVVCRPARTLDTIQLAFKMYGAQEDGSVGEGDLSCILKTALGVAELTVTDLFRAIDQEEKGKITFADFHRFAEMYPAFAEEYLYPDQTHFESCAETSPAPIPNGFCADFSPENSDAGRKPVRKKLD [LPCAT1]	-0.209	52	52.6	-0.086	2.41	3.77
MRLSWFRVLTVLSICLSAVATATGAEGKRKLQIGVKKRVDHCPIKSRKGDVLHMHYTGKLEDGTEFDSSLPQNQPFVFSLGTGQVIKGWDQGLLGMCEGEKRKLVIPSELGYGERGAPPKIPGGATLVFEVELLKIERRTEL [FKBP2]	0.262	53.1	54.8	-0.0211	1.33	1.16
MRLTRCQAALAAAITLNLLVLFYVSWLQHQPRNSRARGPRRASAAGPRVTVLVREFEAFDNAVPELVDSFLQQDPAQPVVVAADTLPYPPLALPRIPNVRLALLQPALDRPAAASRPETYVATEFVALVPDGARAEAPGLLERMVEALRAGSARLVAAPVATANPARCLALNVSLREWTARYGAAPAAPRCDALDGDAVVLLRARDLFNLSAPLARPVGTSLFLQTALRGWAVQLLDLTFAAARQPPLATAHARWKAEREGRARRAALLRALGIRLVSWEGGRLEWFGCNKETTRCFGTVVGDTPAYLYEERWTPPCCLRALRETARYVVGVLEAAGVRYWLEGGSLLGAARHGDIIPWDYDVDLGIYLEDVGNCEQLRGAEAGSVVDERGFVWEKAVEGDFFRVQYSESNHLHVDLWPFYPRNGVMTKDTWLDHRQDVEFPEHFLQPLVPLPFAGFVAQAPNNYRRFLELKFGPGVIENPQYPNPALLSLTGSG [FKRP]	0.127	54.5	55.1	0.00852	-1.33	0.366
